PMC4703389

How the values were obtained:
7D8-E430G (human) = test: dynamic light scattering; 7D8 and mutants in PBS pH 7.4 up to 100 mg/mL, 25°C; linear regression of diffusion coefficient versus antibody concentration; self-association
7D8-E345K (human) = test: as above

7D8-E430G (antibody)
interaction parameter from regression of the diffusion coefficient versus concentration (7D8-E430G (human)): -0.0126 mL/g

7D8-E345K (antibody)
interaction parameter from regression of the diffusion coefficient versus concentration (7D8-E345K (human)): -0.0174 mL/g
